In test [1] the target is SARS-CoV-2 spike (S) protein, WA1 (SARS-CoV-2) (UniProt P0DTC2). The test can be described thus: cell-based or functional assay.
The target of test [2] is SARS-CoV-2 WA1 spike (S) protein (SARS-CoV-2) (UniProt P0DTC2). The test can be described thus: cell-based or functional assay.

As for ADG20 (antibody), in test [1], the neutralization IC50 came out at 0.047 nM and the neutralization IC80 amounted to 0.197 nM.
The substance AZD3152 (antibody) yielded a pseudovirus neutralization IC50 in test [2] of 0.161 µg/mL. In test [1], this substance had an IC50, pseudovirus neutralization of 1.08 nM and an IC80, pseudovirus neutralization of 2.2 nM.
